This passage reports Km, kcat and kcat/Km results from article PMC11619291, “Functional and structural analyses of IMP-27 metallo-β-lactamase: evolution of IMP-type enzymes to overcome Zn(II) deprivation” (Microbiology Spectrum, 2024).

Assay in all cases: purified protein
Settings in all cases: no added Zn(II), 20 mM HEPES pH 7.5, 30°C

For data set [1], the system named is CC1=C(C(=O)O)N2C(=O)[C@@H](NC(=O)[C@H](N)c3ccccc3)[C@H]2SC1.
In data set [2] the test system is CC(=O)OCC1=C(C(=O)O)N2C(=O)[C@@H](NC(=O)Cc3cccs3)[C@H]2SC1. Format: biochemical, Serratia marcescens. From the text:
(§1) steady-state hydrolysis, UV-VIS spectrophotometry on IMP-1

Data set [3] has as its system CC(C)(O/N=C(\C(=O)N[C@@H]1C(=O)N2C(C(=O)[O-])=C(C[n+]3ccccc3)CS[C@H]12)c1csc(N)n1)C(=O)O. In kind it is biochemical, Serratia marcescens.
Excerpt: as §1

In data set [4] the test system is CC1(C)S[C@@H]2[C@H](NC(=O)Cc3ccccc3)C(=O)N2[C@H]1C(=O)O. Format: biochemical, Serratia marcescens.
Excerpt: as §1

The subject of data set [5] is CC1(C)S[C@@H]2[C@H](NC(=O)[C@H](N)c3ccccc3)C(=O)N2[C@H]1C(=O)O. In kind it is biochemical, Serratia marcescens.
Excerpt: as §1

Data set [6] relates to CO/N=C(\C(=O)N[C@@H]1C(=O)N2C(C(=O)O)=C(COC(C)=O)CS[C@H]12)c1csc(N)n1. In kind it is biochemical, Serratia marcescens.
Excerpt: as §1

For data set [7], the system named is C[C@@H](O)[C@H]1C(=O)N2C(C(=O)O)=C(SCCN=CN)C[C@H]12. In kind it is biochemical, Serratia marcescens.
Excerpt: as §1

The subject of data set [8] is C[C@@H](O)[C@H]1C(=O)N2C(C(=O)O)=C(S[C@@H]3CN[C@H](C(=O)N(C)C)C3)[C@H](C)[C@H]12. Format: biochemical, Serratia marcescens.
Excerpt: as §1

In data set [9] the test system is CC(=O)OCC1=C(C(=O)O)N2C(=O)[C@@H](NC(=O)Cc3cccs3)[C@H]2SC1. Format: biochemical, Morganella morganii. The source says: (§2) steady-state hydrolysis, UV-VIS spectrophotometry on IMP-27
Data set [10] relates to CC(C)(O/N=C(\C(=O)N[C@@H]1C(=O)N2C(C(=O)[O-])=C(C[n+]3ccccc3)CS[C@H]12)c1csc(N)n1)C(=O)O. In kind it is biochemical, Morganella morganii.
Excerpt: as §2

In data set [11] the test system is CC1(C)S[C@@H]2[C@H](NC(=O)Cc3ccccc3)C(=O)N2[C@H]1C(=O)O. Format: biochemical, Morganella morganii.
Excerpt: as §2

Data set [12] has as its system CC1(C)S[C@@H]2[C@H](NC(=O)[C@H](N)c3ccccc3)C(=O)N2[C@H]1C(=O)O. Format: biochemical, Morganella morganii.
Excerpt: as §2

Data set [13] relates to CO/N=C(\C(=O)N[C@@H]1C(=O)N2C(C(=O)O)=C(COC(C)=O)CS[C@H]12)c1csc(N)n1. In kind it is biochemical, Morganella morganii.
Excerpt: as §2

The subject of data set [14] is C[C@@H](O)[C@H]1C(=O)N2C(C(=O)O)=C(S[C@@H]3CN[C@H](C(=O)N(C)C)C3)[C@H](C)[C@H]12. In kind it is biochemical, Morganella morganii.
Excerpt: as §2

In the case of IMP-1 (Serratia marcescens), the Km in data set [1] was 18.5 ± 2.9 µM; in [2], 1.62 ± 0.21 µM; in data set [3], 38.1 ± 1.6 µM; in [4], 144 ± 6 µM; in data set [5], 41.8 ± 7.6 µM; in [6] it was 3.44 ± 0.12 µM. Also, the results for the Michaelis-Menten constant (Km) in [7] and in data set [8] were 48.6 ± 10.2 µM and 83.3 ± 16.1 µM, respectively. The catalytic constant (kcat) in [1] was 75.1 s⁻¹; in data set [2], 82.5 ± 5.9 s⁻¹; in [3] it was 14.2 ± 0.8 s⁻¹; in [4], 367 ± 38 s⁻¹; in [5], 37.6 ± 3.1 s⁻¹; in data set [6] it was 26 ± 1.8 s⁻¹. Besides, the kcat in data set [7] turned out to be 87.6 ± 4.5 s⁻¹; in data set [8], 25.1 ± 4.4 s⁻¹. Also, the specificity constant (kcat/Km) turned out to be 4.06e+06 M⁻¹ s⁻¹ in [1]; 5.11e+07 M⁻¹ s⁻¹ in data set [2]; 373000 M⁻¹ s⁻¹ in data set [3]; 2.56e+06 M⁻¹ s⁻¹ in data set [4]; 899000 M⁻¹ s⁻¹ in data set [5]; 7.55e+06 M⁻¹ s⁻¹ in data set [6]. Besides, the catalytic efficiency (kcat/Km) in data set [7] was found to be 1.88e+06 M⁻¹ s⁻¹; in data set [8] it was 301000 M⁻¹ s⁻¹.
Turning to IMP-27 (Morganella morganii), the Km in data set [1] was determined as 5.47 ± 0.53 µM; in data set [9], 9.23 ± 0.88 µM; in data set [10], 27.5 ± 3.4 µM; in data set [11], 218 ± 28 µM; in data set [13], 6.57 ± 0.96 µM; in data set [14], 4.21 ± 0.29 µM. For the same substance, the kcat in data set [1] is 1.19 s⁻¹; in data set [9], 290 ± 39 s⁻¹; in [10], 2.02 ± 0.3 s⁻¹; in [11] it was 20.3 ± 2.2 s⁻¹; in [12], > 7.25 s⁻¹; in [13], 50.7 ± 6.6 s⁻¹. The kcat in data set [14] worked out at 6.79 ± 0.8 s⁻¹. The specificity constant (kcat/Km) in [1] was 217000 M⁻¹ s⁻¹; in data set [9], 3.14e+07 M⁻¹ s⁻¹; in data set [10], 73200 M⁻¹ s⁻¹; in [11] it was 93200 M⁻¹ s⁻¹; in [12], 28800 M⁻¹ s⁻¹; in [13] it was 7.72e+06 M⁻¹ s⁻¹. Besides, the specificity constant (kcat/Km) in [14] is 1.63e+06 M⁻¹ s⁻¹.

One may read the Km as the substrate concentration at which the rate is half of its maximum. As a reminder, the kcat is the number of substrate molecules converted per active site and unit of time at saturation. As a reminder, the kcat/Km is the turnover number divided by the Michaelis constant.
